The results in this text go back to patent US20220119534A1 (DRAGONFLY THERAPEUTICS, published 2022).

A word on the Kd: it is the equilibrium constant for the complex coming apart. One may read the koff as a measure of how fast the partners let go of each other. Broadly, the kon is the second-order rate constant of association.

Numbering of substitutions follows the chain as printed. In names and notes the source's numbering stands. Several values for one entry are separate records, joined by “and”; a condition that tells them apart may be missing. Equal entries are not always repeated.

Experiment [1] deals with T1, Human CLEC12A-His (human, UniProt Q5QGZ9 65-265).
T1 construct: Recombinant soluble protein made in house (Dragonfly Tx); The hCLEC12A spot of the HuProt array is written under this molecule as well; also called hCLEC12A-His; hCLEC12A; not shown: His tag
T1 sequence: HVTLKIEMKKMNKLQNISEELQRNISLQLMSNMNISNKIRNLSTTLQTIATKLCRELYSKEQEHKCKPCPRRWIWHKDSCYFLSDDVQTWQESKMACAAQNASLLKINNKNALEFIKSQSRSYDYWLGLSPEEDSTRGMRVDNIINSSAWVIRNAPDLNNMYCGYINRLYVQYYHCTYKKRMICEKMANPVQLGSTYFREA
Nature of the experiment: SPR Biacore 8K 37 C; TriNKET captured on anti-hFc chip, hCLEC12A-His as analyte; 1:1 fit; control sample, n=2. For orientation: Surface plasmon resonance follows binding to a sensor surface in real time, without labels.

Experiment [2] has as its target T2, mFc-hNKG2D (human, UniProt P26718 73-216).
T2 construct: extracellular domain; Made in house (Dragonfly Tx); the order of tag and ECD follows the name mFc-hNKG2D; also called mFc-tagged human NKG2D; not shown: mouse Fc tag
T2 sequence (looked up): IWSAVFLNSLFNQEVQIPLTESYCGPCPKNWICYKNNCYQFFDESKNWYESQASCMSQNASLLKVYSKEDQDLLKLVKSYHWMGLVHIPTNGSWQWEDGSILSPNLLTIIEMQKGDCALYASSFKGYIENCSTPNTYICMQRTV
Description: SPR Biacore 8K 37 C; mFc-hNKG2D captured on anti-mFc chip, TriNKET as analyte; 1:1 kinetic fit; after 4 wks 40 C in phosphate/citrate/NaCl pH 7.8, n=2.

Experiment [3] concerns the target T3, Human CLEC12A-His (human, UniProt Q5QGZ9 65-265).
T3 construct: Recombinant soluble protein made in house; also called hCLEC12A-His; hCLEC12A; not shown: His tag
T3 sequence: T1 sequence
Description: SPR; sample after pH 8.0, 40 C, 2 weeks.

Experiment [4] concerns the target T4, mFc-hNKG2D (human, UniProt P26718 73-216).
T4 construct: extracellular domain; Recombinant mFc-tagged NKG2D dimer, made in house; also called human NKG2D; not shown: mouse Fc tag
T4 sequence (looked up): T2 sequence (looked up)
Nature of the experiment: SPR; sample after pH 8.0, 40 C, 2 weeks.

In experiment [5] the target is T5, Human CD16a V158 (human, UniProt P08637 17-208, biotinylated).
T5 construct: Bought recombinant receptor; also called hCD16a (V158); hFcγRIIIa V158
Description: SPR; sample after pH 8.0, 40 C, 2 weeks.

For experiment [6], the target named is T3, Human CLEC12A-His. Description: SPR; sample after 4 weeks at 40 C in CST pH 7.0.
The target of experiment [7] is T4, mFc-hNKG2D. Description: SPR; sample after 4 weeks at 40 C in CST pH 7.0.
Experiment [8] concerns the target T5, Human CD16a V158. Nature of the experiment: SPR; sample after 4 weeks at 40 C in CST pH 7.0.
Experiment [9] has as its target T6, Human CLEC12A expressed on cells (Ba/F3-hCLEC12A, PL21, HL60) (human, UniProt Q5QGZ9 1-265).
T6 sequence: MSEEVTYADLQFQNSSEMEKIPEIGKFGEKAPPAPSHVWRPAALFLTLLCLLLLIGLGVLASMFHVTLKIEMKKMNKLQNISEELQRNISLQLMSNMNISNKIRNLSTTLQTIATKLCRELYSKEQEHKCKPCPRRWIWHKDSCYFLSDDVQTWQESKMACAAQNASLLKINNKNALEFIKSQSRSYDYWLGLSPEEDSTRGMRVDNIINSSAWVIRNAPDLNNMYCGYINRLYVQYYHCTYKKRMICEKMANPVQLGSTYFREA
Description: cell-based or functional assay.

The target of experiment [10] is T7, Human CLEC12A-His (recombinant, K244 WT) (human, UniProt Q5QGZ9 65-265).
T7 construct: Made in house (Dragonfly Tx); also called hCLEC12A; hCLEC12A-His; not shown: His tag
T7 sequence: T1 sequence
Nature of the experiment: SPR, two-state fit; control sample.

The target in experiment [11] is T8, Human CD16b (FcγRIIIb) (human, UniProt O75015 17-200, limits assumed, biotinylated).
T8 construct: Bought recombinant receptor; also called hFcγRIIIb; CD16b (FcγR3b)
Description: SPR 25C, biotinylated CD16b captured.

The target of the next experiment is T9, Cynomolgus CD64 (FcγRI) (cynomolgus monkey, UniProt A0A2K5U901 33-309, Biotinylated and captured on the CAP chip (p-1094); the biotin site is not stated.).
T9 construct: Bought recombinant receptor; also called cFcγRI; Cynomolgus FcγRI; not shown: The vendor's biotinylation and purification tag (ACRO FCA-C82E8)
Description: SPR, summary of FcγR affinities (n = 3).

The target of experiment [12] is T10, Cynomolgus CD16 (FcγRIII) (cynomolgus monkey, UniProt Q8SPW2 17-208, biotinylated).
T10 construct: Bought recombinant receptor; also called cFcγRIII; Cyno FcγRIII
Description: SPR, summary of FcγR affinities (n = 3).
Description: (§1) Human and cynomolgus CD64, high and low affinity alleles of CD16a (V158 and F158, respectively), two alleles of CD32a (H131 and R131), CD16b, CD32b and cynomolgus CD16 were captured via biotin on a primed (according to the manufacturers instruction) Biacore chip. […] Due to irreversibility of streptavidin-biotin interaction, the capture step for all receptors except FcγRI (CD64) was performed just once prior to the start of the binding experiment. hCD64 and cyno CD64 capture on the CAP chip surface was performed during each cycle in accordance with the manufacturer's instructions for the Biotin CAPture kit.
(§2) Detailed description of each individual receptor binding is presented below.

For experiment [13], the target named is T8, Human CD16b (FcγRIIIb). Nature of the experiment: SPR, summary of FcγR affinities (n = 3).
Description: as §1, §2
In experiment [14] the target is T7, Human CLEC12A-His (recombinant, K244 WT). Description: SPR, two-state fit (kd1); after 4 wks 40C in CST pH 7.0.
Description: Briefly, human Fc specific antibodies were covalently immobilized at a density ˜8000-10000 resonance units (RU) on carboxy methyl dextran matrix of a CM5 biosensor chip via amine-coupling chemistry to create an anti-hFc IgG chip. […] Association was monitored for 300 seconds and dissociation was monitored for 600 seconds. Surfaces were regenerated between cycles with three pulses of 10 mM glycine-HCl, pH 1.7 injected for 20 seconds at 100 μl/min. HBS-EP+ (1×) with 0.1 mg/ml BSA was used as running buffer throughout the experiment. Experiments were performed at physiological temperature of 37° C. To obtain kinetic rate constants and overall binding affinity, double-referenced data were fit to a two-state kinetic model using Biacore 8K Insight Evaluation software (Cytiva).
In experiment [15] the target is T11, recombinant human CLEC12A-His (human, UniProt Q5QGZ9 65-265).
T11 construct: also called hCLEC12A-His; hCLEC12A
T11 sequence: T1 sequence
Description: SPR 37C, average.

T8 sequence (O75015 17-200 limits assumed): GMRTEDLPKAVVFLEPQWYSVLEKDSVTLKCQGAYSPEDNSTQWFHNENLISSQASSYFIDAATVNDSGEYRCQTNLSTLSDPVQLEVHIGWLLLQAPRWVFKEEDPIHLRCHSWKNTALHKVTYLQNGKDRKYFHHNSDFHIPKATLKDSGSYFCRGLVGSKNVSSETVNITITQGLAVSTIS
T5 sequence (P08637 17-208 F176V limits assumed): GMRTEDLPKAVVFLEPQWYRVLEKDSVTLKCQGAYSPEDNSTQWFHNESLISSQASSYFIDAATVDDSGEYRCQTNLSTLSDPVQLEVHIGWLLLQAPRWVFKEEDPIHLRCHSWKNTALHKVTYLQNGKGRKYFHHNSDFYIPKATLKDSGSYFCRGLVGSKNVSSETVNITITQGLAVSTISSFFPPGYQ
T10 sequence (Q8SPW2 17-208 limits assumed): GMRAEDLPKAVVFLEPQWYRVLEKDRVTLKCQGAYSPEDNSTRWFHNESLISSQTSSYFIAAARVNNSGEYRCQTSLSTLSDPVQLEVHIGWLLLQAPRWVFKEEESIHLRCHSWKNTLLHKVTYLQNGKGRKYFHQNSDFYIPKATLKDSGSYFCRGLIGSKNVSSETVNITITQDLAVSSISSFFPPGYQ
T9 sequence (A0A2K5U901 entry or part of it limits assumed): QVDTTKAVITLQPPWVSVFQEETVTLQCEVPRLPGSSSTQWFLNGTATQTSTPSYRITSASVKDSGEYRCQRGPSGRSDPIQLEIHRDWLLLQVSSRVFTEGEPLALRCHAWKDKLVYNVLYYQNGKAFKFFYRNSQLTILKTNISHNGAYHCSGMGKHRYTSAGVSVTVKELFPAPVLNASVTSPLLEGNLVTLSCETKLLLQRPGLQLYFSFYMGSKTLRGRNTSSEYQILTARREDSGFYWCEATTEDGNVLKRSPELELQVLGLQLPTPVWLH
Description for Cynomolgus CD64 (FcγRI): as §1, §2

B1: F3'-1602 TriNKET (bispecific antibody, human IgG1, kappa)
chain: QLQLQESGPGLVKPSETLSLTCTVSGFSLTNYGLHWIRQPPGKCLEWIGVIWSGGKTDYNPSLKSRVTISKDTSKNQFSLKLSSVQAADTAVYYCAKYDYDDSLDYWGQGTLVTVSSGGGGSGGGGSGGGGSGGGGSDIQMTQSPSSLSASVGDRVTITCHASQNINFWLSWYQQKPGKAPKLLIYEASNLHTGVPSRFSGSGSGTRFTLTISSLQPEDIATYYCQQSHSYPLTFGCGTKLEIKGSDKTHTCPPCPAPELLGGPSVFLFPPKPKDTLMISRTPEVTCVVVDVSHEDPEVKFNWYVDGVEVHNAKTKPREEQYNSTYRVVSVLTVLHQDWLNGKEYKCKVSNKALPAPIEKTISKAKGQPREPRVYTLPPCRDELTKNQVSLTCLVKGFYPSDIAVEWESNGQPENNYKTTPPVLVSDGSFTLYSKLTVDKSRWQQGNVFSCSVMHEALHNHYTQKSLSLSPG
heavy: EVQLVESGGGLVKPGGSLRLSCAASGFTFSSYSMNWVRQAPGKGLEWVSSISSSSSYIYYADSVKGRFTISRDNAKNSLYLQMNSLRAEDTAVYYCARGAPIGAAAGWFDPWGQGTLVTVSSASTKGPSVFPLAPSSKSTSGGTAALGCLVKDYFPEPVTVSWNSGALTSGVHTFPAVLQSSGLYSLSSVVTVPSSSLGTQTYICNVNHKPSNTKVDKKVEPKSCDKTHTCPPCPAPELLGGPSVFLFPPKPKDTLMISRTPEVTCVVVDVSHEDPEVKFNWYVDGVEVHNAKTKPREEQYNSTYRVVSVLTVLHQDWLNGKEYKCKVSNKALPAPIEKTISKAKGQPREPQVCTLPPSRDELTENQVSLTCLVKGFYPSDIAVEWESNGQPENNYKTTPPVLDSDGSFFLYSWLTVDKSRWQQGNVFSCSVMHEALHNHYTQKSLSLSPG
light: DIQMTQSPSSVSASVGDRVTITCRASQGISSWLAWYQQKPGKAPKLLIYAASSLQSGVPSRFSGSGSGTDFTLTISSLQPEDFATYYCQQGVSFPRTFGGGTKVEIKRTVAAPSVFIFPPSDEQLKSGTASVVCLLNNFYPREAKVQWKVDNALQSGNSQESVTEQDSKDSTYSLSSTLTLSKADYEKHKVYACEVTHQGLSSPVTKSFNRGEC
notes: Trispecific F3' format: CLEC12A scFv-Fc paired with NKG2D Fab-Fc; Stressed and control samples of the stability studies are the same molecule; also called AB0237
With B1, in the experiment with Human CLEC12A-His [1], the dissociation constant Kd came out at 0.98 nM, the koff stood at 0.000735 s⁻¹ and the on-rate constant (kon) worked out at 750000 M⁻¹ s⁻¹. For the same molecule, in the experiment with mFc-hNKG2D [2], the Kd was determined as 869 nM, the dissociation rate constant (koff) stood at 0.133 s⁻¹ and the kon stood at 153000 M⁻¹ s⁻¹.

B2: AB0192 TriNKET (other)
chain: EVQLVESGGGVVQPGGSLRLSCAASGFTFNAFGMHWVRQAPGKCLEWVAFISSGSTSIYYANTVKGRFTISRDNSKNTLYLQMNSLRAEDTAVYYCARDGYPTGGAMDYWGQGTSVTVSSGGGGSGGGGSGGGGSGGGGSDIQMTQSPSSLSASVGDRVTITCKASQDIYNYLSWFQQKPGKAPKPLIYRANILVSGVPSRFSGSGSGQDYTFTISSLQPEDIATYYCLQFDAFPFTFGCGTKLEIKGSDKTHTCPPCPAPELLGGPSVFLFPPKPKDTLMISRTPEVTCVVVDVSHEDPEVKFNWYVDGVEVHNAKTKPREEQYNSTYRVVSVLTVLHQDWLNGKEYKCKVSNKALPAPIEKTISKAKGQPREPRVYTLPPCRDELTKNQVSLTCLVKGFYPSDIAVEWESNGQPENNYKTTPPVLVSDGSFTLYSKLTVDKSRWQQGNVFSCSVMHEALHNHYTQKSLSLSPG
heavy: B1 heavy
light: B1 light
notes: the condition stands under assay; also called AB0192 Lot AB0192-005
In the case of B2, the Kd in the experiment with Human CLEC12A-His [3] stood at 1.66 nM; with mFc-hNKG2D [4], 779 nM; with Human CD16a V158 [5], 173 nM; with Human CLEC12A-His [6] it was 1.96 nM; in the experiment with mFc-hNKG2D [7] it was 653 nM; in the experiment with Human CD16a V158 [8], 174 nM. Besides, the koff came to 0.00128 s⁻¹ with Human CLEC12A-His [3]; 0.121 s⁻¹ with mFc-hNKG2D [4]; 0.0191 s⁻¹ with Human CD16a V158 [5]; 0.00147 s⁻¹ in the experiment with Human CLEC12A-His [6]; 0.121 s⁻¹ with mFc-hNKG2D [7]; 0.0194 s⁻¹ with Human CD16a V158 [8]. The on-rate constant (kon) is 768000 M⁻¹ s⁻¹ with Human CLEC12A-His [3]; 156000 M⁻¹ s⁻¹ in the experiment with mFc-hNKG2D [4]; 110000 M⁻¹ s⁻¹ in the experiment with Human CD16a V158 [5]; 749000 M⁻¹ s⁻¹ with Human CLEC12A-His [6]; 185000 M⁻¹ s⁻¹ in the experiment with mFc-hNKG2D [7]; 111000 M⁻¹ s⁻¹ in the experiment with Human CD16a V158 [8].

B3: AB0089 TriNKET (bispecific antibody, human IgG1, kappa)
chain: B1 chain with S53V, K56A, K71V, Y98G, D101G, S103T, R207D, I220F
heavy: B1 heavy
light: B1 light
notes: F3' format heterodimer of three chains; human IgG1 Fc with EW-RVT and Y349C/S354C mutations; also called AB0089 Lot AB0089-002; CLEC12A TriNKET AB0089
In the case of B3, the “EC50, lysis of PL21 cells by NK cells, with sMIC-A-Fc” value in experiment [9] turned out to be 0.26 nM. The “EC50, lysis of PL21 cells by NK cells, without sMIC-A-Fc” value in experiment [9] stood at 0.32 nM. In addition, the Kd in [10] is 1 nM; with Human CD16b (FcγRIIIb) [11] it was 10300 nM and 8800 nM and 7400 nM; with Cynomolgus CD64 (FcγRI), 1.5 nM; in experiment [12], 349 nM; with Human CD16b (FcγRIIIb) [13], 8850 nM. The dissociation rate constant (koff) in experiment [14] stood at 0.0373 s⁻¹.

B4: F3'-1602 TriNKET (other)
chain: B1 chain
heavy: B1 heavy
light: B1 light
notes: CLEC12A scFv-Fc, NKG2D A49MI Fab-Fc, human IgG1 Fc; also called AB0237
Consider B4, for which, in experiment [15], the dissociation constant (Kd) came to 0.57 nM, the dissociation rate constant (koff) amounted to 0.000494 s⁻¹ and the kon is 844000 M⁻¹ s⁻¹.
